Source: patent publication US20180086837A1 (Ablynx, published 2018)

Legend:
human CXCR4 [1] = target: T1, human CXCR4 (human, UniProt P61073 1-352); experiment: cell-based or functional assay
human CXCR4 [2] = target: T1, human CXCR4; experiment: cell-based or functional assay; remark: listed apart in the source
human CXCR4 [3] = target: T1, human CXCR4; experiment: inhibition of 12G5 binding, Jurkat cells
human CXCR4 [4] = target: T1, human CXCR4; experiment: SDF-1^AF647 displacement, SUPT-1 cells, flow cytometry, n = 3
human CXCR4 [5] = target: T1, human CXCR4; experiment: inhibition of 12G5 (competitor, 10 nM PE-labelled) binding, THP-1 cells
human CXCR4 [6] = target: T1, human CXCR4; experiment: inhibition of 12G5 (competitor, 10 nM PE-labelled) binding, Jurkat cells
human CXCR4 [7] = target: T1, human CXCR4; experiment: inhibition of 12G5 (competitor, 10 nM PE-labelled) binding, SUPT-1 cells

T1 sequence (P61073 whole entry): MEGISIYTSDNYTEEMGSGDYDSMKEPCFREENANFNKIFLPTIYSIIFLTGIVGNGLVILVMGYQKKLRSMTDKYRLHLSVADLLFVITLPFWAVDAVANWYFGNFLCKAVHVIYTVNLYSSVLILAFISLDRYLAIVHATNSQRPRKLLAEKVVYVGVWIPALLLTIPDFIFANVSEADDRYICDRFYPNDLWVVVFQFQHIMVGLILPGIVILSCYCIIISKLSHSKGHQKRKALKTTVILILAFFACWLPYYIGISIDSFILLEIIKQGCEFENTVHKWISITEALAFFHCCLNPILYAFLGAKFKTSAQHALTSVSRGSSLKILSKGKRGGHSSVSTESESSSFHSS

B1: 281F12-35GS-03F11 (bispecific antibody)
chain: EVQLVESGGGLVQAGDSLRLSCAASGRAFSRYAMGWFRQAPGKEREFVAAIGWGPSKTNYADSVKGRFTISRDNAKNTVYLQMNTLKPEDTAVYSCAAKFVNTDSTWSRSEMYTYWGQGTQVTVSSGGGGSGGGGSGGGGSGGGGSGGGGSGGGGSGGGGSEVQLVESGGGSVQPGGSLTLSCGTSGRTFNVMGWFRQAPGKEREFVAAVRWSSTGIYYTQYADSVKSRFTISRDNAKNTVYLEMNSLKPEDTAVYYCAADTYNSNPARWDGYDFRGQGTQVTVSS
notes: Bispecific Nanobody construct, CXCR4 arm N-terminal; also called 281F12-35GS-3F11; CXCR4-35GS-CD4; not shown: C-terminal c-myc-His6 tag (E. coli) or FLAG3-His6 tag (Pichia)
- IC50, inhibition of SDF-1a-mediated chemotaxis, Jurkat E6-1 cells (human CXCR4 [1]): 110 nM
- IC50, inhibition of SDF-1a-mediated chemotaxis, MOLM-13 cells (human CXCR4 [1]): 0.59 nM
- Ratio to 281F12 (fold increase in potency), chemotaxis, Jurkat E6-1 cells (human CXCR4 [1]): 0.8 fold
- Ratio to 281F12 (fold increase in potency), chemotaxis, MOLM-13 cells (human CXCR4 [1]): 146 fold
- IC50, SDF-1 induced Ca2+ signaling, U87-CD4-CXCR4 cells (human CXCR4 [2]): 5.31 nM
- fold loss of potency compared to monovalent CXCR4 Nanobody construct (human CXCR4 [3]): 2 fold
- IC50 (human CXCR4 [4]): 0.96 nM
- IC50 (human CXCR4 [5]): 2.48 nM
- IC50 (human CXCR4 [6]): 29.3 nM
- IC50 (human CXCR4 [7]): 1.5 nM
